Test results published in US20220017591A1 (AstraZeneca / MedImmune, published 2022).

B1: RELAX0084 (Fc fusion)
chain 1: DKTHTCPPCPAPEFEGGPSVFLFPPKPKDTLMISRTPEVTCVVVDVSHEDPEVKFNWYVDGVEVHNAKTKPREEQYNSTYRVVSVLTVLHQDWLNGKEYKCKVSNKALPASIEKTISKAKGQPREPQVYTLPPCREEMTKNQVSLWCLVKGFYPSDIAVEWESNGQPENNYKTTPPVLDSDGSFFLYSKLTVDKSRWQQGNVFSCSVMHEALHNHYTQKSLSLSPGAPAPAPAPAPAPAPAPAPAGSQLYSALANKCCHVGCTKRSLARFC
chain 2: DKTHTCPPCPAPEFEGGPSVFLFPPKPKDTLMISRTPEVTCVVVDVSHEDPEVKFNWYVDGVEVHNAKTKPREEQYNSTYRVVSVLTVLHQDWLNGKEYKCKVSNKALPASIEKTISKAKGQPREPQVCTLPPSREEMTKNQVSLSCAVKGFYPSDIAVEWESNGQPENNYKTTPPVLDSDGSFFLVSKLTVDKSRWQQGNVFSCSVMHEALHNHYTQKSLSLSPGGGGGSGGGGSGGGGSGGGGGSSWMEEVIKLCGRELVRAQIAICGMSTWS
B2: RELAX0086 (Fc fusion)
chain 1: DKTHTCPPCPAPEFEGGPSVFLFPPKPKDTLMISRTPEVTCVVVDVSHEDPEVKFNWYVDGVEVHNAKTKPREEQYNSTYRVVSVLTVLHQDWLNGKEYKCKVSNKALPASIEKTISKAKGQPREPQVYTLPPCREEMTKNQVSLWCLVKGFYPSDIAVEWESNGQPENNYKTTPPVLDSDGSFFLYSKLTVDKSRWQQGNVFSCSVMHEALHNHYTQKSLSLSPGGGGGSGGGGSGGGGGSQLYSALANKCCHVGCTKRSLARFC
chain 2: B1 chain 2
B3: RELAX0085 (Fc fusion)
chain 1: DKTHTCPPCPAPEFEGGPSVFLFPPKPKDTLMISRTPEVTCVVVDVSHEDPEVKFNWYVDGVEVHNAKTKPREEQYNSTYRVVSVLTVLHQDWLNGKEYKCKVSNKALPASIEKTISKAKGQPREPQVYTLPPCREEMTKNQVSLWCLVKGFYPSDIAVEWESNGQPENNYKTTPPVLDSDGSFFLYSKLTVDKSRWQQGNVFSCSVMHEALHNHYTQKSLSLSPGGGGGSGGGGSGGGGSGGGGGSQLYSALANKCCHVGCTKRSLARFC
chain 2: DKTHTCPPCPAPEFEGGPSVFLFPPKPKDTLMISRTPEVTCVVVDVSHEDPEVKFNWYVDGVEVHNAKTKPREEQYNSTYRVVSVLTVLHQDWLNGKEYKCKVSNKALPASIEKTISKAKGQPREPQVCTLPPSREEMTKNQVSLSCAVKGFYPSDIAVEWESNGQPENNYKTTPPVLDSDGSFFLVSKLTVDKSRWQQGNVFSCSVMHEALHNHYTQKSLSLSPGAPAPAPAPAPAPAPAPAPAGSSWMEEVIKLCGRELVRAQIAICGMSTWS
B4: RELAX0107 (Fc fusion)
chain 1: DKTHTCPPCPAPEFEGGPSVFLFPPKPKDTLMISRTPEVTCVVVDVSHEDPEVKFNWYVDGVEVHNAKTKPREEQYNSTYRVVSVLTVLHQDWLNGKEYKCKVSNKALPASIEKTISKAKGQPREPQVYTLPPCREEMTKNQVSLWCLVKGFYPSDIAVEWESNGQPENNYKTTPPVLDSDGSFFLYSKLTVDKSRWQQGNVFSCSVMHEALHNHYTQKSLSLSPGGGGGGSQLYSALANKCCHVGCTKRSLARFC
chain 2: B3 chain 2
B5: RELAX0106 (Fc fusion)
chain 1: DKTHTCPPCPAPEFEGGPSVFLFPPKPKDTLMISRTPEVTCVVVDVSHEDPEVKFNWYVDGVEVHNAKTKPREEQYNSTYRVVSVLTVLHQDWLNGKEYKCKVSNKALPASIEKTISKAKGQPREPQVYTLPPCREEMTKNQVSLWCLVKGFYPSDIAVEWESNGQPENNYKTTPPVLDSDGSFFLYSKLTVDKSRWQQGNVFSCSVMHEALHNHYTQKSLSLSPGGGGGSGGGGGSQLYSALANKCCHVGCTKRSLARFC
chain 2: B3 chain 2
B6: RELAX0087 (Fc fusion)
chain 1: B3 chain 1
chain 2: DKTHTCPPCPAPEFEGGPSVFLFPPKPKDTLMISRTPEVTCVVVDVSHEDPEVKFNWYVDGVEVHNAKTKPREEQYNSTYRVVSVLTVLHQDWLNGKEYKCKVSNKALPASIEKTISKAKGQPREPQVCTLPPSREEMTKNQVSLSCAVKGFYPSDIAVEWESNGQPENNYKTTPPVLDSDGSFFLVSKLTVDKSRWQQGNVFSCSVMHEALHNHYTQKSLSLSPGGGGGSGGGGSGGGGGSSWMEEVIKLCGRELVRAQIAICGMSTWS
B7: RELAX0105 (Fc fusion)
chain 1: B2 chain 1
chain 2: B3 chain 2
B8: RELAX0110 (Fc fusion)
chain 1: B5 chain 1
chain 2: DKTHTCPPCPAPEFEGGPSVFLFPPKPKDTLMISRTPEVTCVVVDVSHEDPEVKFNWYVDGVEVHNAKTKPREEQYNSTYRVVSVLTVLHQDWLNGKEYKCKVSNKALPASIEKTISKAKGQPREPQVYTLPPCREEMTKNQVSLWCLVKGFYPSDIAVEWESNGQPENNYKTTPPVLDSDGSFFLYSKLTVDKSRWQQGNVFSCSVMHEALHNHYTQKSLSLSPGAAPAPAPAPAPAPAGSSWMEEVIKLCGRELVRAQIAICGMSTWS

What was measured:
Experiment in all cases: cell-based or functional assay
human RXFP2 = human RXFP2 (human, UniProt Q8WXD0 1-754)
human RXFP1 = target: T1, human RXFP1 (human, UniProt Q9HBX9 1-757)
T1 sequence (looked up): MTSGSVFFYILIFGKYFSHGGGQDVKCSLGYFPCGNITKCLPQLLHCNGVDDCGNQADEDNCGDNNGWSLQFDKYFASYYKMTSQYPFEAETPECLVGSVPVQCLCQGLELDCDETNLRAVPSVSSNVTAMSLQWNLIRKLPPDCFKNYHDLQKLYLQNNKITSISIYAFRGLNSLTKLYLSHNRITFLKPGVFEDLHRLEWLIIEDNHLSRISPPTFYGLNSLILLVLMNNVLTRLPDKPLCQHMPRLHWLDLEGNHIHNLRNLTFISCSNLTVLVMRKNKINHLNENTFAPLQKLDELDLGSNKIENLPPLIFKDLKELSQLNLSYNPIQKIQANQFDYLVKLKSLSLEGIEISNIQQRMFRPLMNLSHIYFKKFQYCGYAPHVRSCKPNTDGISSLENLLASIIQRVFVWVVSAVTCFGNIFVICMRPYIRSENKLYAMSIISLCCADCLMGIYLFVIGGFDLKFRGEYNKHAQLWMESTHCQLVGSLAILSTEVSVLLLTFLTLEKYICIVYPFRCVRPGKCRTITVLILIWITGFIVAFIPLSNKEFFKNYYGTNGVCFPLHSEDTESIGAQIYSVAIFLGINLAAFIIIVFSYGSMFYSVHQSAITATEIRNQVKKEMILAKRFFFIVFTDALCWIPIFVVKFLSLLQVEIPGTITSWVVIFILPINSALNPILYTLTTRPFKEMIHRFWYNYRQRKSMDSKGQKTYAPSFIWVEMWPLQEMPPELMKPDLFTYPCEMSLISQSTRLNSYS

mouse RXFP1 = target: T2, mouse RXFP1 (mouse, UniProt Q6R6I7 1-758)
T2 sequence (looked up): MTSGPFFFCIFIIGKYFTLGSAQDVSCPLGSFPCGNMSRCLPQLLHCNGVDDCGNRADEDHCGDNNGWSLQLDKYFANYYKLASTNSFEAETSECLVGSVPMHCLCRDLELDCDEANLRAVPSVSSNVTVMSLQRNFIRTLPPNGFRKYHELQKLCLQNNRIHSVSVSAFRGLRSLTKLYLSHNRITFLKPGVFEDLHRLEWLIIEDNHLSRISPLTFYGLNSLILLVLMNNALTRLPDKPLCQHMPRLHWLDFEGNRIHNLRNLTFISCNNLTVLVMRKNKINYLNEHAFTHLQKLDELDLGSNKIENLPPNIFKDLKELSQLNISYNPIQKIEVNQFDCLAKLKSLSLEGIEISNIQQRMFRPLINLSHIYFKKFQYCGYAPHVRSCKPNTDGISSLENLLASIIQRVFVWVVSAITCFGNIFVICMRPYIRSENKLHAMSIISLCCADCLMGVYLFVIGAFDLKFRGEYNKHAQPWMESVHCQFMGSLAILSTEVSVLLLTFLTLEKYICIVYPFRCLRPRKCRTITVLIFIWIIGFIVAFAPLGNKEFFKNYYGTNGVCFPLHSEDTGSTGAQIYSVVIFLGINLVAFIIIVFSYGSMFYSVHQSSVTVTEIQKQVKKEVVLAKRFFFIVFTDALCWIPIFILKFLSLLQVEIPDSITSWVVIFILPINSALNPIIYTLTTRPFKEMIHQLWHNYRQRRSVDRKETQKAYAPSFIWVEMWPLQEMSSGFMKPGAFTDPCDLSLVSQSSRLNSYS

Chain of human RXFP2 (Q8WXD0 whole entry): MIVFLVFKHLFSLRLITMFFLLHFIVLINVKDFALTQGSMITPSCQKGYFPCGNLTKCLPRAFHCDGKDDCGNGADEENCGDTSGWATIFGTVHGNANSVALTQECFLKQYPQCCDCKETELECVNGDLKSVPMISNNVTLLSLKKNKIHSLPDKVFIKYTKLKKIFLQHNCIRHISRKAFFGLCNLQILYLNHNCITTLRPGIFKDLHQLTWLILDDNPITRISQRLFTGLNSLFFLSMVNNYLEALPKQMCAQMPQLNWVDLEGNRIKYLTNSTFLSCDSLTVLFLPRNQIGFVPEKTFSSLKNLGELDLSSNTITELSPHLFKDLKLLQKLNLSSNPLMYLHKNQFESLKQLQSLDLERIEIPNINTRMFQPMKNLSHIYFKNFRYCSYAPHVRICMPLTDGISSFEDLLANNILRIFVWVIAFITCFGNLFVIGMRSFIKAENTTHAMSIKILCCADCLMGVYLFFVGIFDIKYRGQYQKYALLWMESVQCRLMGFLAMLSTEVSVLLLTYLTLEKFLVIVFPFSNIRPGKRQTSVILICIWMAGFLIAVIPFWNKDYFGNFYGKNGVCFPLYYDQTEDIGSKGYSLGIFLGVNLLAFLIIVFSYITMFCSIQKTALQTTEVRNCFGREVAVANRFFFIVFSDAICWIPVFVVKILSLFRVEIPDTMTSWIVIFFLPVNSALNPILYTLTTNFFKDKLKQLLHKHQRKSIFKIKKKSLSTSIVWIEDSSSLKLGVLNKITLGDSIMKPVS

Row | Binder | EC50 hRXFP2 (M), cAMP assay (human RXFP2) [M] | EC50 hRXFP1 (M), cAMP assay (human RXFP1) [M] | EC50 mRXFP1 (M), cAMP assay (mouse RXFP1) [M]
1 | B1 | 1.2e-08 | 5.34e-11 | 3.48e-11
2 | B2 | 4.88e-08 | 4.49e-11 | 2.68e-11
3 | B3 | 4.67e-08 | 6.37e-11 | 3.09e-11
4 | B4 | 1.22e-07 | 8.09e-11 | 3.87e-11
5 | B5 | 4.94e-08 | 6.96e-11 | 1.98e-11
6 | B6 | 3.63e-08 | 4.89e-11 | 3.48e-11
7 | B7 | 3.33e-08 | 7.12e-11 | 1.49e-11
8 | B8 | > 6.07e-08 | 1.88e-09 | 1.11e-09
